Reference: patent publication US20220135690A1 (TWIST BIOSCIENCE, published 2022)

Key:
CXCR4 chemokine receptor [1] = target: CXCR4 chemokine receptor (Pan troglodytes (Chimpanzee), UniProt P61072 1-352); test: cell-based or functional assay
CXCR4 chemokine receptor [2] = target: T1, CXCR4 chemokine receptor (UniProt P61072 1-352); test: HTRF ligand competition
T1 chain: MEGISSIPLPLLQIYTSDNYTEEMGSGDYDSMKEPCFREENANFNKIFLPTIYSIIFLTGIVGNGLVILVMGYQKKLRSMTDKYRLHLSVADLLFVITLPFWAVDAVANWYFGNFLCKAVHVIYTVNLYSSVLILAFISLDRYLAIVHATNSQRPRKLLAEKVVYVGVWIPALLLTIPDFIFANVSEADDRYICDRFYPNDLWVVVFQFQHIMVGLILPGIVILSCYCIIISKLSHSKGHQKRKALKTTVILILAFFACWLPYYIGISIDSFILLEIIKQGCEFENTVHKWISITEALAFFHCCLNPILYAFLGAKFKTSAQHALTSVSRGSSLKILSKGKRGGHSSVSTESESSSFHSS

B1: CXCR4-81-6 (antibody, V domains shown)
VH: EVQLVESGGGLVQAGGSLRLSCAASGRTFSSYAMGWFRQAPGKEREFVAAISWSGGSTYYADSVKGRFTISADNAKNTVYLQMNSLKPEDTAVYYCAAARGYWRWRLGRRYDYWGQGTQVTVSS
VL: DIQMTQSPSSLSASVGDRVTITCRASQSVTTYLNWYQQKPGKAPKLLIYGSSNLQSGVPSRFSGSGSGTDFTLTISSLQPEDFATYYCQQGYSTPWTFGGGTKVEIKR
IC50 in cAMP assay (CXCR4 chemokine receptor [1]): 900 pM | IC50 (CXCR4 chemokine receptor [2]): 687 pM
